Consider 4 molecules from patent publication US20240327480A1 (published 2024).

Ends that are not written are not given here. * marks the point of attachment. Biotin = O=C1N[C@H]2[C@H](CS[C@H]2CCCCC(=O)*)N1

The target in assay [1] is T1, full-length human Nur77 (NR4A1) (human, UniProt P22736 1-598).
T1 construct: mature
The assay can be described thus: plate binding assay, SA488-labelled peptide on adsorbed Nur77, fluorescence. The procedure: Experiment 4C. Binding of immodulin peptides to full-length human Nur77 (NR4A1). 400 ng/well recombinant human Nur77 protein (NR4A1) purchased from Abcam Inc, Cambridge, MA, was adsorbed to wells of a 96-well plate for 90 minutes at room temperature, then blocked with 200 uL 1% BSA in PBS buffer overnight. […] The plate was incubated for 60 min at room temperature, washed and counted in a standard fluorometer (excitation/emission 485/525 nm). Background (buffer alone) was subtracted.

In assay [2] the target is T2, AA111-228 DNA-binding domain of RXR-alpha (human, UniProt P19793 111-228).
T2 construct: range 111-228; Bought recombinant protein (Abcam); also called RXRa-DBD; RXR-alpha DBD
T2 sequence (looked up): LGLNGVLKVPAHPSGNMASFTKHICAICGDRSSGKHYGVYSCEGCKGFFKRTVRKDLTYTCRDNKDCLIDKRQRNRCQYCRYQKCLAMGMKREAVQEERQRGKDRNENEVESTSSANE
Kind of assay: plate binding assay, 800 ng/well SA488-labelled peptide on 1 ug/well adsorbed RXRa-DBD. On the procedure: Experiment 4A. Binding of immodulin peptides to AA111-228 DNA-binding domain of RXR-alpha (RXRa-DBD). 1 ug/well recombinant RXRa-DBD (Abcam, Cambridge, MA) was adsorbed to wells of a 96-well plate for 60 minutes at room temperature, then blocked with 200 uL 1% bovine serum albumin (BSA) in PBS buffer overnight. Plate was washed and 800 ng/well Streptavidin-Alexa 488 conjugate (SA488)-labelled immX peptide was added. The plate was incubated for 60 min at room temperature, washed and counted in a standard fluorometer (excitation/emission 485/525 nm). Background (buffer alone) was subtracted.

In assay [3] the target is T2, AA111-228 DNA-binding domain of …. The assay can be described thus: plate binding assay, 800 ng/well SA488-labelled peptide on 100 ng/well adsorbed domain. The procedure: (§1) Experiment 4B. Binding of immodulin peptides to RXR isoforms and domains. 100 ng/well recombinant human RXRa-DBD or RXRa-LBD, or 400 ng/well full length RXR-alpha, RXR-beta, RXR-gamma or PPAR-gamma (Abcam, Cambridge, MA) was adsorbed to wells of a 96-well plate for 60 minutes at room temperature, then blocked with 200 uL 1% BSA in PBS buffer overnight. The plate was washed with PBS and 800 ng/well Streptavidin-Alexa 488 conjugate (SA488)-labelled peptide was added. The plate was incubated for 2 hours at room temperature, washed and counted in a fluorometer (excitation/emission 485/525 nm).

The target of assay [4] is T3, RXR-alpha ligand-binding domain (human, UniProt P19793 223-462, limits assumed).
T3 construct: Bought recombinant protein (Abcam); also called RXRa-LBD; RXR-alpha LBD
T3 sequence (looked up): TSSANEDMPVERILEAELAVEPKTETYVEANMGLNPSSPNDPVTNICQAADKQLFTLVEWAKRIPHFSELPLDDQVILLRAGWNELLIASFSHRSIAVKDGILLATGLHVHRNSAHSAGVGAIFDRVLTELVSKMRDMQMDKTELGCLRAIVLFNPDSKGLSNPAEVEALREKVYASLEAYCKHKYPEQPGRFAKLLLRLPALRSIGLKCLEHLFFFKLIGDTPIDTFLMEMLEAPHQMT
The description is as above. On the procedure: as §1

The target of assay [5] is T4, full length RXR-beta (human, UniProt P28702 1-533).
T4 construct: mature; also called RXRβ; NR2B2
T4 sequence (looked up): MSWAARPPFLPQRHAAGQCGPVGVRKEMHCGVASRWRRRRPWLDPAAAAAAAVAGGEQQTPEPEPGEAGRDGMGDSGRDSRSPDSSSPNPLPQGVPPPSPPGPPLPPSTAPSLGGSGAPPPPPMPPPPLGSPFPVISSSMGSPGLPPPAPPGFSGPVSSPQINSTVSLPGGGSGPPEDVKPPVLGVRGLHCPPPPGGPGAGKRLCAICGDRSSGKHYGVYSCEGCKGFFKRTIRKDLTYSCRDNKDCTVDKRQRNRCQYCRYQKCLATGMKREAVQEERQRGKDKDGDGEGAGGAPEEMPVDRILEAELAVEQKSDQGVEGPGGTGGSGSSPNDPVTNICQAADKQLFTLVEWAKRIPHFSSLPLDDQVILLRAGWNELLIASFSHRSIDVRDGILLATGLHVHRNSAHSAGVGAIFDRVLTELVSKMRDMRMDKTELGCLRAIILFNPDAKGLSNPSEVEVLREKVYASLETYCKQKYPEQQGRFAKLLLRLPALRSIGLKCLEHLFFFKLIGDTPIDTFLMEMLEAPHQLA
Kind of assay: plate binding assay, 800 ng/well SA488-labelled peptide on 400 ng/well adsorbed receptor. On the procedure: as §1

Assay [6] concerns the target T5, full length RXR-gamma (human, UniProt P48443 1-463).
T5 construct: mature; also called RXRγ; NR2B3
T5 sequence (looked up): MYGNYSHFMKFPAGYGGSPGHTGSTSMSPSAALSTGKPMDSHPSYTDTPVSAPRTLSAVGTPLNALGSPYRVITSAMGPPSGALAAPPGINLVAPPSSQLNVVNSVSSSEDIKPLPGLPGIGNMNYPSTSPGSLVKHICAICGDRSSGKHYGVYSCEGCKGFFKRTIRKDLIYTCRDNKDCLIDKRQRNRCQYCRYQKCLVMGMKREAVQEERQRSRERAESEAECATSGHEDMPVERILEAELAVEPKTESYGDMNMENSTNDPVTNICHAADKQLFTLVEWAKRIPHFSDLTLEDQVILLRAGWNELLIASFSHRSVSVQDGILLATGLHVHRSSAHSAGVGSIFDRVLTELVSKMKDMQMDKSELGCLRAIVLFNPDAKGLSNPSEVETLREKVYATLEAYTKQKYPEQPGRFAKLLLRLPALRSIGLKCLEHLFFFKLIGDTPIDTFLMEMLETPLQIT
The assay is described as above. On the procedure: as §1

Assay [7] concerns the target T6, full length PPAR-gamma (human, UniProt P37231 1-505).
T6 construct: mature
T6 sequence (looked up): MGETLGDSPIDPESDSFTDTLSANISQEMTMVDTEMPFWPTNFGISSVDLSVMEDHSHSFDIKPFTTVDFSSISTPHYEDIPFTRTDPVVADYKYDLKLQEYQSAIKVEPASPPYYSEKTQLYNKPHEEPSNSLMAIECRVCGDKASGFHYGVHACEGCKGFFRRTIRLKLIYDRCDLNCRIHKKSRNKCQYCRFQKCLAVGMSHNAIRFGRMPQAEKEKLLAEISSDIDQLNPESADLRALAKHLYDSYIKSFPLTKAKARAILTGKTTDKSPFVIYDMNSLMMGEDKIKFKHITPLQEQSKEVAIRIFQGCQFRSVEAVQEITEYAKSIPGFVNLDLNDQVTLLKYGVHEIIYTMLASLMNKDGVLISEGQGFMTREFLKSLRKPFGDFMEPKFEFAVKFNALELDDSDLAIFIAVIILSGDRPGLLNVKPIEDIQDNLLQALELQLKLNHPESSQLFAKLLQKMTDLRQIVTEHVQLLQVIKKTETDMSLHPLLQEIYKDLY
The assay is described as above. The procedure: as §1

Assay [8] has as its target T7, full length RXR-alpha (human, UniProt P19793 1-462).
T7 construct: mature; also called RXRα; NR2B1
T7 sequence (looked up): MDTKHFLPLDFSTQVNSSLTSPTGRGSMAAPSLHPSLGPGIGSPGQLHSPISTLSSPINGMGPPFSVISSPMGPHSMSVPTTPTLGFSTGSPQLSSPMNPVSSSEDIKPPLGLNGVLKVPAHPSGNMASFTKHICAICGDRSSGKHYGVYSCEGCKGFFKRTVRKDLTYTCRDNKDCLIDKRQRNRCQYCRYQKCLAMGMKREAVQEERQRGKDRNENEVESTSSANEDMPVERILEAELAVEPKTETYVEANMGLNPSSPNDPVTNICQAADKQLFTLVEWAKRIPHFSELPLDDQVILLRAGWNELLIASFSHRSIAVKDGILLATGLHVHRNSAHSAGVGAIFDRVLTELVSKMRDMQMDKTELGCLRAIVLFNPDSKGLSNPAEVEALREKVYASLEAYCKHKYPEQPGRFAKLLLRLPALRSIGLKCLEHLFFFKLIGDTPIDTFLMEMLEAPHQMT
The description is as above. The procedure:
as §1

T1 sequence (P22736 whole entry): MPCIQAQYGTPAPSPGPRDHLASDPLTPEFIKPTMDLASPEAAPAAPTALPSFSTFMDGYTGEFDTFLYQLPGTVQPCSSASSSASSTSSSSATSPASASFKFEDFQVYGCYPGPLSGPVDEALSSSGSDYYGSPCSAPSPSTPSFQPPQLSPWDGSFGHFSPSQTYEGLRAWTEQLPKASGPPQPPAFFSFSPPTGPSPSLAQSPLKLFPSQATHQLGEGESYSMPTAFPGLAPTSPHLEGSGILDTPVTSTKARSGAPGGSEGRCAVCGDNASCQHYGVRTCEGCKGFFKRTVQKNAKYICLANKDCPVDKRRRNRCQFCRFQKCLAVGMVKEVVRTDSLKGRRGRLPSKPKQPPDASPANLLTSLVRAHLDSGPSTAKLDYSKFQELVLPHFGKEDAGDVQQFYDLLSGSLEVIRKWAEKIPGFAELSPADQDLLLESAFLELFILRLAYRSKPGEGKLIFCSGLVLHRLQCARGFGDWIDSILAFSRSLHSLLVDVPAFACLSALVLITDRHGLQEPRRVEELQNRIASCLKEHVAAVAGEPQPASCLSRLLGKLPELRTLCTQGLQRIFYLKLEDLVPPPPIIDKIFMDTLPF

B1: imm4 (peptide)
peptide: Biotin-RNGNFHPKQCHPALDGQRGKCW
modifications: cysteine pairing not given here; also: labelled with Streptavidin-Alexa 488 conjugate (SA488)
notes: Synthetic immodulin peptide derived from IGFBP-4
In the case of B1, the binding result in assay [1] was “no binding (tested: 333 ng/well peptide on 400 ng/well Nur77)”. In addition, the “Fluorescence (background subtracted)” value in assay [2] worked out at 27 fluorescence counts. For the same molecule, the “fluorescence relative to imm3 binding (=100)” value in assay [3] is 3.2 relative to imm3 binding (=100); in assay [4], 3 relative to imm3 binding (=100); in assay [5] it was 0.3 relative to imm3 binding (=100); in assay [6] it was 3.6 relative to imm3 binding (=100); in assay [7] it was 0.1 relative to imm3 binding (=100); in assay [8], 3.6 relative to imm3 binding (=100).

B2: imm6 (peptide)
peptide: Biotin-HRGFYRKRQCRSSQGQRRGPCW
modifications: cysteine pairing not given here; also: labelled with Streptavidin-Alexa 488 conjugate (SA488)
notes: Synthetic immodulin peptide derived from IGFBP-6; also called immodulin peptide-6
As for B2, in assay [2], the “Fluorescence (background subtracted)” value was 587 fluorescence counts. For the same molecule, the “fluorescence relative to imm3 binding (=100)” value is 22.9 relative to imm3 binding (=100) in assay [3]; 1.6 relative to imm3 binding (=100) in assay [4]; 4.7 relative to imm3 binding (=100) in assay [5]; 42 relative to imm3 binding (=100) in assay [6]; 12.9 relative to imm3 binding (=100) in assay [8]. The molecule also yielded a fluorescence relative to imm3 binding (=100) (relative to imm3 binding (=100)) in assay [7] of 6.8.

B3: imm3 (peptide)
peptide: Biotin-KKGFYKKKQCRPSKGRKRGFCW
modifications: cysteine pairing not given here; also: labelled with Streptavidin-Alexa 488 conjugate (SA488)
notes: Synthetic immodulin peptide derived from IGFBP-3; also called immodulin peptide-3
As for B3, in assay [2], the “Fluorescence (background subtracted)” value was found to be 6570 fluorescence counts. Besides, the “fluorescence relative to imm3 binding (=100)” value in assay [3] is 22.2 relative to imm3 binding (=100); in assay [4], 0.6 relative to imm3 binding (=100); in assay [5] it was 2.9 relative to imm3 binding (=100); in assay [6], 100 relative to imm3 binding (=100); in assay [7], 2.1 relative to imm3 binding (=100); in assay [8], 11.2 relative to imm3 binding (=100).

B4: imm5 (peptide)
peptide: Biotin-RKGFYKRKQCKPSRGRKRGICW
modifications: cysteine pairing not given here; also: labelled with Streptavidin-Alexa 488 conjugate (SA488)
notes: Synthetic immodulin peptide derived from IGFBP-5; also called immodulin peptide-5
For the molecule B4, the “Fluorescence (background subtracted)” value in assay [2] is 6800 fluorescence counts. Also, the “fluorescence relative to imm3 binding (=100)” value is 22.7 relative to imm3 binding (=100) in assay [3]; 1.8 relative to imm3 binding (=100) in assay [4]; 4 relative to imm3 binding (=100) in assay [5]; 90 relative to imm3 binding (=100) in assay [6]; 1.6 relative to imm3 binding (=100) in assay [7]; 17.2 relative to imm3 binding (=100) in assay [8].
